Assay results from paper doi:10.1101/2020.03.22.002394.

Key:
[1] = biological target: murine κ-opioid receptor, split GFP pair (SNAP-κOR-GFP10 and κOR-GFP11-mKate co-expressed) (murine) (UniProt P33534); experiment: split reporter
[2] = biological target: murine κ-opioid receptor (κOR-GFP and SNAP-κOR, two differently tagged copies co-expressed) (murine) (UniProt P33534); experiment: PhotoGate single-molecule co-localisation imaging

murine κ-opioid receptor, split GFP pair (SNAP-κOR-GFP10 and κOR-GFP11-mKate co-expressed) (from UniProt P33534 1-380)
GFP-positive fraction [1]: 91%

murine κ-opioid receptor (κOR-GFP and SNAP-κOR, two differently tagged copies co-expressed) (from UniProt P33534 1-380)
co-localization time [2]: 476 ms
dimeric fraction [2]: < 100%
fraction of receptors in yellow spots [2]: 33%
yellow fraction at a density of 14 / µm^2 [2]: 10%
yellow fraction at densities of > 100 / µm^2 [2]: 46%
